Results on 13 molecules are retold here after US7998940B2, “Aptamers to von Willebrand factor and their use as thrombotic disease therapeutics” (Archemix Corp., priority 2004, dated 2011).

Substitutions are numbered along the chain they refer to.

The test system of one data set is full length human vWF. As to the kind of experiment: 3-point dot blot screen, full length human vWF. Type of data set: binding. The following applies: 20 nM full length human vWF, ratio of fraction of aptamer bound with target protein to fraction bound without protein. The source says:
When a significant positive ratio of binding of DNA in the presence of human or rabbit vWF A1 domain versus in the absence of protein was seen, the pools were cloned using the TOPO TA cloning kit (Invitrogen Cat. #45-0641, Carlsbad, Calif.) according to the manufacturer's instructions. Round 7 and 11 pool templates were cloned and sequenced (218 total sequences), producing 146 unique clones within 12 sequence families of which sequences from six families show vWF target binding activity. All unique clones were assayed twice in a 3-point dot blot screen (no protein target control, 20 nM full length human vWF (Calbiochem Cat. #681300, La Jolla, Calif.), or 20 nM rabbit vWF A1 domain. The data is presented in the third and fourth columns of Table 17 below as the ratio of the fraction of the aptamer bound to the nitrocellulose in the presence of the target protein to the fraction of aptamer bound in the absence of the target protein.

The test system of data set [1] is rabbit vWF A1 domain (SEQ ID NO 6). The experiment in a line: 3-point dot blot screen, rabbit vWF A1 domain. The note with it: 3-point dot blot screen, 20 nM rabbit vWF A1 domain; ratio of fraction of aptamer bound with target protein to fraction bound without protein. Type of data set: binding. The gist of the method:
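Rabbit vWF A1 domain binding was screened by dot blot using three conditions: no target protein, human vWF, and rabbit vWF A1 domain at 100 nM (20 nM in the screen run twice). Radiolabeled aptamer bound to nitrocellulose was quantified, and results are expressed as the ratio of bound fraction with protein to bound fraction without protein.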

Sequence of rabbit vWF A1 domain (SEQ ID NO 6) (as listed by the source): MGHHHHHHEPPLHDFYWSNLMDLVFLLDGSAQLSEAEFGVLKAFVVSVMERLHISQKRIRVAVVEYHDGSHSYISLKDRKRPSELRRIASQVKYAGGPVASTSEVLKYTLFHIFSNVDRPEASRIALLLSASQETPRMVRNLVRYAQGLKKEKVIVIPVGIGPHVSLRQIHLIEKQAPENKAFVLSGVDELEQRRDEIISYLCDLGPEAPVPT

B1: AMX236.C6: DNA SELEX 2 aptamer clone (nucleic acid)
chain: CTACCTACGATCTGACTAGCGGAATGAGAGTGCTGGTGGATTGCTCAGGTCTGCTGGCTGCTTACTCTCATGTAGTTCC
modifications: DNA, backbone not given here
notes: DNA SELEX 2 aptamer clone
In the case of B1, the “Screen- Human/No Protein” value with full length human vWF stood at 1.06. The “Screen Rabbit/No Protein” value in data set [1] is 5.77.

B2: AMX236.E2: DNA SELEX 2 aptamer clone (nucleic acid)
chain: B1 chain with A29T, G30A, G36A
modifications: DNA, backbone not given here
notes: DNA SELEX 2 aptamer clone
As to B2, the “Screen- Human/No Protein” value with full length human vWF was determined as 0.93. For the same molecule, the “Screen Rabbit/No Protein” value in data set [1] is recorded as 3.59.

B3: AMX238.F6: DNA SELEX 2 aptamer clone (nucleic acid)
DNA: B1 chain with A29T, G30A
modifications: DNA, backbone not given here
notes: DNA SELEX 2 aptamer clone
As for B3, the “Screen- Human/No Protein” value with full length human vWF is 1.18. Further, the “Screen Rabbit/No Protein” value in data set [1] amounted to 5.36.

B4: AMX237.C4: DNA SELEX 2 aptamer clone (nucleic acid)
DNA: CTACCTACGATCTGACTAGCTTTCAGTCTTCCACATTTATAGGGTTTGGCATTGGGTCTGGCTTACTCTCATGTAGTTCC
modifications: DNA, backbone not given here
notes: DNA SELEX 2 aptamer clone
Consider B4, for which the “Screen- Human/No Protein” value in the data set with full length human vWF worked out at 0.97. Further, in data set [1], the “Screen Rabbit/No Protein” value turned out to be 1.31.

B5: AMX237.F1: DNA SELEX 2 aptamer clone (nucleic acid)
DNA: B4 DNA with A35G
modifications: DNA, backbone not given here
notes: DNA SELEX 2 aptamer clone
For the molecule B5, the “Screen- Human/No Protein” value in the data set on full length human vWF is given as 0.98. The “Screen Rabbit/No Protein” value in data set [1] stood at 1.22.

B6: AMX238.H11: DNA SELEX 2 aptamer clone (nucleic acid)
DNA: B4 DNA with C31T
modifications: DNA, backbone not given here
notes: DNA SELEX 2 aptamer clone
Take B6: the “Screen- Human/No Protein” value in the data set on full length human vWF was determined as 0.98. In data set [1], the “Screen Rabbit/No Protein” value was determined as 1.14.

B7: AMX237.F5: DNA SELEX 2 aptamer clone (nucleic acid)
DNA: B4 DNA with C24T
modifications: DNA, backbone not given here
notes: DNA SELEX 2 aptamer clone
Regarding B7, the “Screen- Human/No Protein” value in the data set with full length human vWF was 0.99. Besides, the “Screen Rabbit/No Protein” value in data set [1] was 1.22.

B8: AMX237.E5: DNA SELEX 2 aptamer clone (nucleic acid)
DNA: B4 DNA with C32T
modifications: DNA, backbone not given here
notes: DNA SELEX 2 aptamer clone
On to B8, for which the “Screen- Human/No Protein” value in the data set on full length human vWF is recorded as 0.97. Further, in data set [1], the “Screen Rabbit/No Protein” value is on record as 1.15.

B9: AMX237.G2: DNA SELEX 2 aptamer clone (nucleic acid)
DNA: B4 DNA with C31T, C34T
modifications: DNA, backbone not given here
notes: DNA SELEX 2 aptamer clone
For B9, the “Screen- Human/No Protein” value with full length human vWF is reported as 1.02. The “Screen Rabbit/No Protein” value in data set [1] stood at 1.16.

B10: AMX237.B1: DNA SELEX 2 aptamer clone (nucleic acid)
chain: CTACCTACGATCTGACTAGCTTGGTAGCGACACAGTGGAGCTGCGGTTTGGTCGACGTCAGCTTACTCTCATGTAGTTCC
modifications: DNA, backbone not given here
notes: DNA SELEX 2 aptamer clone
As for B10, the “Screen- Human/No Protein” value with full length human vWF is reported as 2.00. The “Screen Rabbit/No Protein” value in data set [1] is on record as 2.10.

B11: AMX238.G4: DNA SELEX 2 aptamer clone (nucleic acid)
DNA: CTACCTACGATCTGACTAGCTTGTCGCACTTTTGGTTGGTCTGGTTGGTTCTAAGTGCGCTTACTCTCATGTAGTTCC
modifications: DNA, backbone not given here
notes: DNA SELEX 2 aptamer clone
With B11, the “Screen- Human/No Protein” value with full length human vWF was determined as 1.09. Also, the “Screen Rabbit/No Protein” value in data set [1] turned out to be 1.39.

B12: AMX238.H9: DNA SELEX 2 aptamer clone (nucleic acid)
DNA: B11 DNA with C51T
modifications: DNA, backbone not given here
notes: DNA SELEX 2 aptamer clone
For B12, in the data set on full length human vWF, the “Screen- Human/No Protein” value is 1.11. The “Screen Rabbit/No Protein” value in data set [1] amounted to 1.32.

B13: AMX238.A3: DNA SELEX 2 aptamer clone (nucleic acid)
DNA: CTACCTACGATCTGACTAGCTCAAAGTATTACTTATTGGCAATAAGTCGTTTACTCTATAGCTTACTCTCATGTAGTTCC
modifications: DNA, backbone not given here
notes: DNA SELEX 2 aptamer clone
As to B13, in the data set on full length human vWF, the “Screen- Human/No Protein” value came out at 1.36. For the same molecule, the “Screen Rabbit/No Protein” value in data set [1] came to 1.03.
